Patent publication US6602854B1, “Branched multimeric Apo A-I agonist compounds” (priority 1997, dated 2003)
Like-named read-outs stand apart in the source and are kept apart here.

Columns and labels:
HepG2 hepatoma cells = experiment: Cholesterol efflux; type: cell-based; details: peptide:DMPC complexes 1:2 (w:w), 1-25 μg/ml, 24 hours; compared with native human ApoA-I
Method: HepG2 hepatoma cells were plated into 6-well culture dishes and grown to confluence. Cells were labeled with ^3H-cholesterol by drying the cholesterol, then adding 1% bovine serum albumin (BSA) in phosphate buffered saline (PBS), sonicating the solution, and adding 0.2 ml labeling solution and 1.8 ml growth medium to the cells, so that each well contained 2 μCi of radioactivity. Cells were incubated for 24 h with the labeling medium.
Peptide (or protein):DMPC complexes were prepared at a 1:2 peptide (or protein):DMPC ratio (w:w). […] Peptide or protein concentration in the final solution was 1 mg/ml.
Labeling media was removed from the cells and the cells were washed with PBS prior to addition of complexes. 1.6 ml of growth medium was added to each well, followed by peptide (or protein): DMPC complex and sufficient PBS to bring the final volume to 2 ml per well. The final peptide or ApoA-I concentrations were 1, 2.5, 5, 7.5 and 25 μg/ml medium. After 24 hours of incubation at 37° C., the medium was removed, and the cells washed with 2 ml of 1% BSA/PBS, followed by 2 washes with 2 ml each of PBS. The amount of ^3H-cholesterol effluxed into the medium was determined by liquid scintillation counting.

HDL in human plasma = details: for Radioactivity in 300 μl: 50 μl value multiplied by 6
Method: Human plasma (2 ml) was incubated with 20, 40, 60, 80, and 100 μg of ^14C-labeled peptide peptide 4 for 2 hr. at 37° C. The lipoproteins were separated by adjusting the density to 1.21 g/ml and centrifugation in TLA 100.3 rotor at 100,000 rpm (300,000 g) for 36 hr. at 4° C. The top 900 μl (in 300 μl fractions) was taken for the analysis. 50 μl from each 300 μl fraction was counted for radioactivity and 200 μl from each fraction was analyzed by FPLC (Superose 6/Superose 12 combination column).

PVLDLFRELLNELLEALKQKLK [peptide 4]
cholesterol efflux (in words) (HepG2 hepatoma cells): more efficient at cholesterol efflux than ApoA-I
Radioactivity in 50 μl (HDL in human plasma; 20 μg peptide in 2 ml human plasma, Fraction No. 1): 1407 cpm
Recovery (HDL in human plasma; 20 μg peptide, Fraction No. 1): 71.6%
Radioactivity in 300 μl (HDL in human plasma; 20 μg peptide, Fraction No. 1): 8442 cpm
Radioactivity in 50 μl (HDL in human plasma; 20 μg peptide, Fraction No. 2): 405 cpm
Recovery (HDL in human plasma; 20 μg peptide, Fraction No. 2): 20.6%
Radioactivity in 300 μl (HDL in human plasma; 20 μg peptide, Fraction No. 2): 2430 cpm
Radioactivity in 50 μl (HDL in human plasma; 20 μg peptide, Fraction No. 3): 152 cpm
Recovery (HDL in human plasma; 20 μg peptide, Fraction No. 3): 7.7%
Radioactivity in 300 μl (HDL in human plasma; 20 μg peptide, Fraction No. 3): 912 cpm
Radioactivity in 50 μl (HDL in human plasma; 40 μg peptide, Fraction No. 1): 2538 cpm
Recovery (HDL in human plasma; 40 μg peptide, Fraction No. 1): 70.4%
Radioactivity in 300 μl (HDL in human plasma; 40 μg peptide, Fraction No. 1): 15228 cpm
Radioactivity in 50 μl (HDL in human plasma; 40 μg peptide, Fraction No. 2): 721 cpm
Recovery (HDL in human plasma; 40 μg peptide, Fraction No. 2): 20%
Radioactivity in 300 μl (HDL in human plasma; 40 μg peptide, Fraction No. 2): 4326 cpm
Radioactivity in 50 μl (HDL in human plasma; 40 μg peptide, Fraction No. 3): 347 cpm
Recovery (HDL in human plasma; 40 μg peptide, Fraction No. 3): 9.6%
Radioactivity in 300 μl (HDL in human plasma; 40 μg peptide, Fraction No. 3): 2082 cpm
Radioactivity in 50 μl (HDL in human plasma; 60 μg peptide, Fraction No. 1): 4492 cpm
Recovery (HDL in human plasma; 60 μg peptide, Fraction No. 1): 75.5%
Radioactivity in 300 μl (HDL in human plasma; 60 μg peptide, Fraction No. 1): 26952 cpm
Radioactivity in 50 μl (HDL in human plasma; 60 μg peptide, Fraction No. 2): 1107 cpm
Recovery (HDL in human plasma; 60 μg peptide, Fraction No. 2): 18.6%
Radioactivity in 300 μl (HDL in human plasma; 60 μg peptide, Fraction No. 2): 6642 cpm
Radioactivity in 50 μl (HDL in human plasma; 60 μg peptide, Fraction No. 3): 354 cpm
Recovery (HDL in human plasma; 60 μg peptide, Fraction No. 3): 5.9%
Radioactivity in 300 μl (HDL in human plasma; 60 μg peptide, Fraction No. 3): 2124 cpm
Radioactivity in 50 μl (HDL in human plasma; 80 μg peptide, Fraction No. 1): 4715 cpm
Recovery (HDL in human plasma; 80 μg peptide, Fraction No. 1): 60%
Radioactivity in 300 μl (HDL in human plasma; 80 μg peptide, Fraction No. 1): 28290 cpm
Radioactivity in 50 μl (HDL in human plasma; 80 μg peptide, Fraction No. 2): 2251 cpm
Recovery (HDL in human plasma; 80 μg peptide, Fraction No. 2): 28.6%
Radioactivity in 300 μl (HDL in human plasma; 80 μg peptide, Fraction No. 2): 13506 cpm
Radioactivity in 50 μl (HDL in human plasma; 80 μg peptide, Fraction No. 3): 851 cpm
Recovery (HDL in human plasma; 80 μg peptide, Fraction No. 3): 11.3%
Radioactivity in 300 μl (HDL in human plasma; 80 μg peptide, Fraction No. 3): 5346 cpm
Radioactivity in 50 μl (HDL in human plasma; 100 μg peptide, Fraction No. 1): 5424 cpm
Recovery (HDL in human plasma; 100 μg peptide, Fraction No. 1): 67.5%
Radioactivity in 300 μl (HDL in human plasma; 100 μg peptide, Fraction No. 1): 32544 cpm
Radioactivity in 50 μl (HDL in human plasma; 100 μg peptide, Fraction No. 2): 1708 cpm
Recovery (HDL in human plasma; 100 μg peptide, Fraction No. 2): 21.2%
Radioactivity in 300 μl (HDL in human plasma; 100 μg peptide, Fraction No. 2): 10248 cpm
Radioactivity in 50 μl (HDL in human plasma; 100 μg peptide, Fraction No. 3): 907 cpm
Recovery (HDL in human plasma; 100 μg peptide, Fraction No. 3): 11.3%
Radioactivity in 300 μl (HDL in human plasma; 100 μg peptide, Fraction No. 3): 5442 cpm
